One molecule from patent US20150329824A1 (NATIONAL CHENG KUNG UNIVERSITY, published 2015) can be followed below.

No end group written: not given here.

In this test the target is T1, membrane hyaluronidase Hyal-2 on spleen cells of NOD-SCID mice (mouse (spleen cells of NOD-SCID mice), UniProt O35632 21-448).
T1 construct: whole, on cells; Endogenous protein on mouse spleen cells, detected with an antibody against Hyal-2; also called hyaluronidase-2
T1 sequence (looked up): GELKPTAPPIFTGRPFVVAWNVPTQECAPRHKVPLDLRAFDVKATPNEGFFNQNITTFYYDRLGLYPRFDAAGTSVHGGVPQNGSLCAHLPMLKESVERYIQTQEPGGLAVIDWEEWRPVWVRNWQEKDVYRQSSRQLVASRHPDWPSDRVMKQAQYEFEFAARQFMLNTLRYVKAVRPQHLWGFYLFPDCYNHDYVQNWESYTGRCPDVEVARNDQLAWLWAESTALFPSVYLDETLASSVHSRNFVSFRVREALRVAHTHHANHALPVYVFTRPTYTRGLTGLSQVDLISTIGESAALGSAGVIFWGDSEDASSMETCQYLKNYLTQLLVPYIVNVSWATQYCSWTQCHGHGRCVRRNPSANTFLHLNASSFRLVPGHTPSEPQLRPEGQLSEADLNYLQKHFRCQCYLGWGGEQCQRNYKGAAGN
Kind of test: epifluorescence and confocal microscopy of NOD-SCID spleen cells stained with TMR-Zfra1-31 and Hyal-2 antibody. As for the experimental part: FIG. 2 includes photos showing the identification of Zfra⁺ Hyal-2⁺ spleen cells. A and B: Spleen cells of NOD-SCID mice were isolated and stained with synthesized peptide TMR-Zfra₁₋₃₁ and Hyal-2 (green fluorescence) antibody for 30 minutes on ice, and then fixed with 4% formaldehyde. Zfra bound to membrane hyaluronidase Hyal-2, as determined by epifluorescence and confocal microscopy.
In this example, spleen cells were isolated from immune deficient NOD-SCID mice, which are deficient in T and B lymphocytes and NK cells. The isolated spleen cells were stained with antibody against Hyal-2 (green) and TMR-Zfra (Zfra₁₋₃₁ labeled with red fluorescent tetramethylrodamine) for 30 minutes on ice, and then fixed with 4% formaldehyde (FIG. 2). […] These Hyal-2⁺ Zfra⁺ positive cells are interchangeably referred to as “Z cells,” for cells interacting with Zfra.

B1: TMR-Zfra1-31 (Zfra1-31 labeled with red fluorescent tetramethylrodamine) (peptide)
peptide: MSSRRSSSCKYCEQDFRAHTQKNAATPFLAN
modifications: cysteine pairing not given here; also: tetramethylrhodamine (TMR) label, position not given here
notes: Synthesized full-length Zfra peptide with a TMR label, used to stain spleen cells; also called Tetramethylrhodamine-Zfra
As for B1, the binding result was “binds”.
